From EP4717706A1

B1: AVR21 with I319N, Y377F (receptor)
chain: MGSAGESDQNTLPKHEAQLNVYVLLVPPKGEASTYDWQLITHPRDYSGEMEGEHSQILKLSNLTPGLFEYRAVVEGQNAHSEGYVNVTVEPEPRKNRPPIAIVSPQFQEISLPTTSTVIDGSQSTDDDKIVQYHWEELKGPLREEKISEDTAILKLSQLVPGNYTFRLTVVDTDGATDSTTADLTVNKAVDHHHHHH
B2: AVR21 with E340G (receptor)
chain: MGSAGESDQITLPKHEAQLNVYVLLVPPKGGASTYDWQLITHPRDYSGEMEGEHSQILKLSNLTPGLYEYRAVVEGQNAHSEGYVNVTVEPEPRKNRPPIAIVSPQFQEISLPTTSTVIDGSQSTDDDKIVQYHWEELKGPLREEKISEDTAILKLSQLVPGNYTFRLTVVDTDGATDSTTADLTVNKAVDHHHHHH
B3: AVR21 with Q347K, N472K (receptor)
chain: MGSAGESDQITLPKHEAQLNVYVLLVPPKGEASTYDWKLITHPRDYSGEMEGEHSQILKLSNLTPGLYEYRAVVEGQNAHSEGYVNVTVEPEPRKNRPPIAIVSPQFQEISLPTTSTVIDGSQSTDDDKIVQYHWEELKGPLREEKISEDTAILKLSQLVPGKYTFRLTVVDTDGATDSTTADLTVNKAVDHHHHHH
B4: AVR21 with L367P, V412A (receptor)
chain: MGSAGESDQITLPKHEAQLNVYVLLVPPKGEASTYDWQLITHPRDYSGEMEGEHSQIPKLSNLTPGLYEYRAVVEGQNAHSEGYVNVTVEPEPRKNRPPIAIASPQFQEISLPTTSTVIDGSQSTDDDKIVQYHWEELKGPLREEKISEDTAILKLSQLVPGNYTFRLTVVDTDGATDSTTADLTVNKAVDHHHHHH
B5: AVR21 with T343A, K(N)371D (receptor)
chain: MGSAGESDQITLPKHEAQLNVYVLLVPPKGEASAYDWQLITHPRDYSGEMEGEHSQILKLSDLTPGLYEYRAVVEGQNAHSEGYVNVTVEPEPRKNRPPIAIVSPQFQEISLPTTSTVIDGSQSTDDDKIVQYHWEELKGPLREEKISEDTAILKLSQLVPGNYTFRLTVVDTDGATDSTTADLTVNKAVDHHHHHH
B6: AVR21 with D345G, E454D (receptor)
chain: MGSAGESDQITLPKHEAQLNVYVLLVPPKGEASTYGWQLITHPRDYSGEMEGEHSQILKLSNLTPGLYEYRAVVEGQNAHSEGYVNVTVEPEPRKNRPPIAIVSPQFQEISLPTTSTVIDGSQSTDDDKIVQYHWEELKGPLREDKISEDTAILKLSQLVPGNYTFRLTVVDTDGATDSTTADLTVNKAVDHHHHHH
B7: AVR21 with T397S (receptor)
chain: MGSAGESDQITLPKHEAQLNVYVLLVPPKGEASTYDWQLITHPRDYSGEMEGEHSQILKLSNLTPGLYEYRAVVEGQNAHSEGYVNVSVEPEPRKNRPPIAIVSPQFQEISLPTTSTVIDGSQSTDDDKIVQYHWEELKGPLREEKISEDTAILKLSQLVPGNYTFRLTVVDTDGATDSTTADLTVNKAVDHHHHHH
B8: AVR21 with L376P (receptor)
chain: MGSAGESDQITLPKHEAQLNVYVLLVPPKGEASTYDWQLITHPRDYSGEMEGEHSQILKLSNLTPGPYEYRAVVEGQNAHSEGYVNVTVEPEPRKNRPPIAIVSPQFQEISLPTTSTVIDGSQSTDDDKIVQYHWEELKGPLREEKISEDTAILKLSQLVPGNYTFRLTVVDTDGATDSTTADLTVNKAVDHHHHHH
B9: AVR21 with E378G (receptor)
chain: MGSAGESDQITLPKHEAQLNVYVLLVPPKGEASTYDWQLITHPRDYSGEMEGEHSQILKLSNLTPGLYGYRAVVEGQNAHSEGYVNVTVEPEPRKNRPPIAIVSPQFQEISLPTTSTVIDGSQSTDDDKIVQYHWEELKGPLREEKISEDTAILKLSQLVPGNYTFRLTVVDTDGATDSTTADLTVNKAVDHHHHHH
B10: AVR21 with L321Q, T343S (receptor)
chain: MGSAGESDQITQPKHEAQLNVYVLLVPPKGEASSYDWQLITHPRDYSGEMEGEHSQILKLSNLTPGLYEYRAVVEGQNAHSEGYVNVTVEPEPRKNRPPIAIVSPQFQEISLPTTSTVIDGSQSTDDDKIVQYHWEELKGPLREEKISEDTAILKLSQLVPGNYTFRLTVVDTDGATDSTTADLTVNKAVDHHHHHH
B11: AVR21 with F(Y)379S (receptor)
chain: MGSAGESDQITLPKHEAQLNVYVLLVPPKGEASTYDWQLITHPRDYSGEMEGEHSQILKLSNLTPGLYESRAVVEGQNAHSEGYVNVTVEPEPRKNRPPIAIVSPQFQEISLPTTSTVIDGSQSTDDDKIVQYHWEELKGPLREEKISEDTAILKLSQLVPGNYTFRLTVVDTDGATDSTTADLTVNKAVDHHHHHH
B12: AVR21 with L367P (receptor)
chain: MGSAGESDQITLPKHEAQLNVYVLLVPPKGEASTYDWQLITHPRDYSGEMEGEHSQIPKLSNLTPGLYEYRAVVEGQNAHSEGYVNVTVEPEPRKNRPPIAIVSPQFQEISLPTTSTVIDGSQSTDDDKIVQYHWEELKGPLREEKISEDTAILKLSQLVPGNYTFRLTVVDTDGATDSTTADLTVNKAVDHHHHHH
B13: AVR21 with E384D, V396E (receptor)
chain: MGSAGESDQITLPKHEAQLNVYVLLVPPKGEASTYDWQLITHPRDYSGEMEGEHSQILKLSNLTPGLYEYRAVVDGQNAHSEGYVNETVEPEPRKNRPPIAIVSPQFQEISLPTTSTVIDGSQSTDDDKIVQYHWEELKGPLREEKISEDTAILKLSQLVPGNYTFRLTVVDTDGATDSTTADLTVNKAVDHHHHHH
B14: AVR21 with I366F, D435A (receptor)
chain: MGSAGESDQITLPKHEAQLNVYVLLVPPKGEASTYDWQLITHPRDYSGEMEGEHSQFLKLSNLTPGLYEYRAVVEGQNAHSEGYVNVTVEPEPRKNRPPIAIVSPQFQEISLPTTSTVIDGSQSTADDKIVQYHWEELKGPLREEKISEDTAILKLSQLVPGNYTFRLTVVDTDGATDSTTADLTVNKAVDHHHHHH
B15: AVR21 with K(N)371S, E453D, S466T (receptor)
chain: MGSAGESDQITLPKHEAQLNVYVLLVPPKGEASTYDWQLITHPRDYSGEMEGEHSQILKLSSLTPGLYEYRAVVEGQNAHSEGYVNVTVEPEPRKNRPPIAIVSPQFQEISLPTTSTVIDGSQSTDDDKIVQYHWEELKGPLRDEKISEDTAILKLTQLVPGNYTFRLTVVDTDGATDSTTADLTVNKAVDHHHHHH
B16: AVR21 with K338R, A461P (receptor)
chain: MGSAGESDQITLPKHEAQLNVYVLLVPPRGEASTYDWQLITHPRDYSGEMEGEHSQILKLSNLTPGLYEYRAVVEGQNAHSEGYVNVTVEPEPRKNRPPIAIVSPQFQEISLPTTSTVIDGSQSTDDDKIVQYHWEELKGPLREEKISEDTPILKLSQLVPGNYTFRLTVVDTDGATDSTTADLTVNKAVDHHHHHH
B17: AVR21 with L376P, P402S (receptor)
chain: MGSAGESDQITLPKHEAQLNVYVLLVPPKGEASTYDWQLITHPRDYSGEMEGEHSQILKLSNLTPGPYEYRAVVEGQNAHSEGYVNVTVEPESRKNRPPIAIVSPQFQEISLPTTSTVIDGSQSTDDDKIVQYHWEELKGPLREEKISEDTAILKLSQLVPGNYTFRLTVVDTDGATDSTTADLTVNKAVDHHHHHH
B18: AVR21 with I(V)382I (receptor)
chain: MGSAGESDQITLPKHEAQLNVYVLLVPPKGEASTYDWQLITHPRDYSGEMEGEHSQILKLSNLTPGLYEYRAIVEGQNAHSEGYVNVTVEPEPRKNRPPIAIVSPQFQEISLPTTSTVIDGSQSTDDDKIVQYHWEELKGPLREEKISEDTAILKLSQLVPGNYTFRLTVVDTDGATDSTTADLTVNKAVDHHHHHH
B19: AVR21 with T397A (receptor)
chain: MGSAGESDQITLPKHEAQLNVYVLLVPPKGEASTYDWQLITHPRDYSGEMEGEHSQILKLSNLTPGLYEYRAVVEGQNAHSEGYVNVAVEPEPRKNRPPIAIVSPQFQEISLPTTSTVIDGSQSTDDDKIVQYHWEELKGPLREEKISEDTAILKLSQLVPGNYTFRLTVVDTDGATDSTTADLTVNKAVDHHHHHH
B20: AVR21 with E360D, H389R (receptor)
chain: MGSAGESDQITLPKHEAQLNVYVLLVPPKGEASTYDWQLITHPRDYSGEMDGEHSQILKLSNLTPGLYEYRAVVEGQNARSEGYVNVTVEPEPRKNRPPIAIVSPQFQEISLPTTSTVIDGSQSTDDDKIVQYHWEELKGPLREEKISEDTAILKLSQLVPGNYTFRLTVVDTDGATDSTTADLTVNKAVDHHHHHH
B21: AVR21 with Y344F, T350A, Y377N (receptor)
chain: MGSAGESDQITLPKHEAQLNVYVLLVPPKGEASTFDWQLIAHPRDYSGEMEGEHSQILKLSNLTPGLNEYRAVVEGQNAHSEGYVNVTVEPEPRKNRPPIAIVSPQFQEISLPTTSTVIDGSQSTDDDKIVQYHWEELKGPLREEKISEDTAILKLSQLVPGNYTFRLTVVDTDGATDSTTADLTVNKAVDHHHHHH
B22: AVR21 with L321Q (receptor)
chain: MGSAGESDQITQPKHEAQLNVYVLLVPPKGEASTYDWQLITHPRDYSGEMEGEHSQILKLSNLTPGLYEYRAVVEGQNAHSEGYVNVTVEPEPRKNRPPIAIVSPQFQEISLPTTSTVIDGSQSTDDDKIVQYHWEELKGPLREEKISEDTAILKLSQLVPGNYTFRLTVVDTDGATDSTTADLTVNKAVDHHHHHH
B23: AVR21 with L369S (receptor)
chain: MGSAGESDQITLPKHEAQLNVYVLLVPPKGEASTYDWQLITHPRDYSGEMEGEHSQILKSSNLTPGLYEYRAVVEGQNAHSEGYVNVTVEPEPRKNRPPIAIVSPQFQEISLPTTSTVIDGSQSTDDDKIVQYHWEELKGPLREEKISEDTAILKLSQLVPGNYTFRLTVVDTDGATDSTTADLTVNKAVDHHHHHH
B24: AVR21 with Q365R, V(A)381T, K497E (receptor)
chain: MGSAGESDQITLPKHEAQLNVYVLLVPPKGEASTYDWQLITHPRDYSGEMEGEHSRILKLSNLTPGLYEYRTVVEGQNAHSEGYVNVTVEPEPRKNRPPIAIVSPQFQEISLPTTSTVIDGSQSTDDDKIVQYHWEELKGPLREEKISEDTAILKLSQLVPGNYTFRLTVVDTDGATDSTTADLTVNEAVDHHHHHH

The binders below were run against VLP2 (virus-like particles, capsid protein particles of AAV serotype 2) (AAV serotype 2 (AAV2)) (UniProt P03135) (assay: ELISA on immobilised VLP2 (culture supernatant, anti-His detection); A450 after 1:1 0.5 M NaOH, 30 min, 30°C divided by A450 untreated).
UniProt P03135, sequence (P03135 whole entry): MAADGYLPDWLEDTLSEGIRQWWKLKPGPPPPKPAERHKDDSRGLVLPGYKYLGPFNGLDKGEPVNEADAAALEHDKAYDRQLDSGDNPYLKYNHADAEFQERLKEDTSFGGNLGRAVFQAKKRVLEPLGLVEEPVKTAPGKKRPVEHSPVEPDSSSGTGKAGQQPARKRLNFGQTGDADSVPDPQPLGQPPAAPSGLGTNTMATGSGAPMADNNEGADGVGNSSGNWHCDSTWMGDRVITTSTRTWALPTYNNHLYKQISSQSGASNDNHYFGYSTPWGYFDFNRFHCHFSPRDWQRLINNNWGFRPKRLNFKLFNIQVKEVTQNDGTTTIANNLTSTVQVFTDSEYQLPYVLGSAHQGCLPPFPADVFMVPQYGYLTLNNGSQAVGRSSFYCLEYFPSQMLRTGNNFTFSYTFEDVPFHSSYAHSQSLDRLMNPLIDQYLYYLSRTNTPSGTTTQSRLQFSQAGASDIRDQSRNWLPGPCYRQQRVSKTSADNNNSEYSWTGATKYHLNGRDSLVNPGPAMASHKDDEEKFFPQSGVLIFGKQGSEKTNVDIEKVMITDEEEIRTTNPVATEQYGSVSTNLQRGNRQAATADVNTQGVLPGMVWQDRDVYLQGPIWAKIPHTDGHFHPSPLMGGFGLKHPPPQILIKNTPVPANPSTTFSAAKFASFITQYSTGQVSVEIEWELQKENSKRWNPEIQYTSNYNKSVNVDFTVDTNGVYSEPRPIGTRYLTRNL
For B1, the Remaining activity [%] was 45.1%. Work on B2 yielded a Remaining activity [%] of 28.1%. B3 showed a Remaining activity [%] of 58.9%. B4 showed a Remaining activity [%] of 35.8%. In the case of B5, the Remaining activity [%] is reported as 40.5%. With B6 the Remaining activity [%] was 61.7%. In the case of B7, the Remaining activity [%] is reported as 38.4%. B8 showed a Remaining activity [%] of 42.6%. B9 gave a Remaining activity [%] of 58%. With B10 the Remaining activity [%] was 50.4%. Binder B11 has a Remaining activity [%] of 54.9%. In the case of B12, the Remaining activity [%] is reported as 35.7%. In the case of B13, the Remaining activity [%] is reported as 45.3%. Work on B14 yielded a Remaining activity [%] of 38.4%. With B15 the Remaining activity [%] was 57.3%. Binder B16 has a Remaining activity [%] of 36.4%. With B17 the Remaining activity [%] was 35.1%. With B18 the Remaining activity [%] was 32.8%. For B19, the Remaining activity [%] was 40.4%. Binder B20 has a Remaining activity [%] of 46.7%. In the case of B21, the Remaining activity [%] is reported as 34.4%. B22 was tested, and the Remaining activity [%] was 34.2%. Work on B23 yielded a Remaining activity [%] of 51.4%. Work on B24 yielded a Remaining activity [%] of 42%.
